In assay [1] the target is T1, Recombinant soluble E protein (0.8E-His) from DENV-3 (DENV-3, UniProt P27915 281-673).
T1 construct: also called DENV-3 E protein; DV3

The target in assay [2] is T1, Recombinant soluble E protein …. The source holds these as a separate data set.
Assay [3] addresses T2, Recombinant soluble E protein (0.8E-His) from DENV-1 (DENV-1, UniProt P27909 281-675).
T2 construct: also called DENV-1 E protein; DV1

Assay [4] concerns the target T3, Recombinant soluble E protein (0.8E-His) from DENV-2 (DENV-2, UniProt P14340 281-675).
T3 construct: also called DENV-2 E protein; DV2

The target of assay [5] is T4, Recombinant soluble E protein (0.8E-His) from DENV-4 (DENV-4, UniProt P09866 280-674).
T4 construct: also called DENV-4 E protein; DV4

Assay [6] addresses T2, Recombinant soluble E protein …. The source holds these as a separate data set.

Like-named read-outs stand apart in the source and are kept apart here.

B1: DG_3CH1047-SG182/3CL658-SK1 (antibody, human IgG1, kappa, V domains shown)
VH: QVQLVQSGPDVEKPGASVKVSCKASGYTFTSYYMHWVRQAPGQGLEWMGVINPRGGSRRSAQKFQGRITMTRDTSTSTVYMELSSLRSEDTAVYYCARGGEALFYDSYTTPFDGGSWWFDPWGQGSLVTVSS
VL: DIQLTQSPSSLSASVGDRVTFTCQASQEIRKYLNWYQQKPGKAPKLLIYDASELKTGVPSRFSGSGSGTDFTFTISSLQPEDVATYYCQQFEDLPITFGQGTRLQIKR
notes: also called 3Cam
Regarding B1, the Kd (in general, the concentration at which binding is half-saturated) turned out to be 0.00382 nM in assay [1]; 0.00501 nM in assay [2]; 3.51 nM in assay [3]; 0.765 nM in assay [4]; 9.11 nM in assay [5]; 2.98 nM in assay [6].

(Values after patent US20190218277A1 (Chugai, published 2019).)
